Experimental data: PMC12498388, “Niraparib Demonstrates Therapeutic Potential in Multiple Sclerosis through Inhibition of IL-17A Receptor Interaction and Promotion of Remyelination” (ACS Chemical Neuroscience, 2025)

What was measured:
[1] = target: IL-17RA/IL-17RC heterodimeric receptor (UniProt Q96F46)
[2] = target: T1, IL-17A with IL-17RA/IL-17RC receptor (HEK-Blue IL-17 reporter cells) (Homo sapiens, UniProt Q16552); experiment: SEAP reporter assay in HEK-Blue IL-17 cells, QUANTI-Blue […] nm; format: cell-based; settings: IL-17A-stimulated cells, 37 °C overnight, 1 nM to 100 μM, four-parameter fit; indirect downstream reporter read-out (NF-kB/AP-1), binding site not shown experimentally
T1 construct: gene IL17A; IL-17A ligand supplied by the manufacturer, added to HEK 293 cells stably transfected with IL-17RA/IL-17RC heterodimeric receptor and Act1 adaptor; SEAP reporter (NF-kB/AP-1); with Interleukin-17 receptor A; Interleukin-17 receptor C

IL-17A, sequence (Q16552 24-155): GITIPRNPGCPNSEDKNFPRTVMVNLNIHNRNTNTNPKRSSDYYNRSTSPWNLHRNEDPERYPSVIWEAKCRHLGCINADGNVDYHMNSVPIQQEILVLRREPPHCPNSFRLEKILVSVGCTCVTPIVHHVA

Molecule: IL-17A (from UniProt Q16552 24-155) (ligand)
- SEAP release of HEK-Blue IL-17 reporter cells (QUANTI-Blue, 630 nm) with IL-17A; percent inhibition by the small molecule Niraparib, 1 nM to 100 uM (22% at 1 uM, 51% at 10 uM, 99.3% at 100 uM) [1]: 99.3%

Molecule: NC(=O)c1cccc2cn(-c3ccc([C@@H]4CCCNC4)cc3)nc12 [Niraparib]
- IC50 [2]: 70 µM
